Earlier results, collected in paper PMC10532153, “Interactions of the N- and C-Terminal SH3 Domains of Drosophila Drk with the Proline-Rich Peptides from Sos and Dos” (International Journal of Molecular Sciences, 2023).
pKd: −log10 of the molar value.

Molecular target: T1, Drk-CSH3 (Drosophila melanogaster, UniProt Q08012)
T1 construct: its N- and C-terminal SH3 domains (Drk-NSH3 and Drk-CSH3, respectively); made in house
Conditions: previous paper on Drk-CSH3; read-out: Kd for Drk-CSH3, nine-residue (“shorter”) Dos peptides
Source text: Table 1 The calculated dissociation constants (Kds) for Sos- and Dos-derived peptides.

T1 sequence (Q08012 152-211 limits assumed): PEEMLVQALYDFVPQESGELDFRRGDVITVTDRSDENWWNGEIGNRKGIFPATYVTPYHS

| pKd | Sequence |
| --- | --- |
| ~2.85 | PPVNRKLKP [shorter Dos-S1] |
| ~2.32 | PSVDRKCKP [shorter Dos-S2] |
